For 54 variants, self-cleavage results are on record in the RNAGym collection of RNA variant scans (doi:10.7554/elife.80360).

The chains are these.
B1: Twister Ribozyme (parent)
chain: AACACUGCCAAUGCCGGUCCCAAGCCCGGAUAAAAGUGGAGGGGGCGG

The variants in this series derive from B1. Description: self-cleavage, relative activity (ratio to wild type); higher = more cleavage; co-transcriptional.
With AACACUGCCAAUGCCGGUCCCAAGCCCGGAUAAAAGUGGGGGGGGUGG [A40G C46U], the self-cleavage worked out at 0.155.

For the variant AACACCGCCAAUGCCGGUCCCAAGCCCGGAUAAAAGUGGAGGGGGGGG [U6C C46G], the self-cleavage was determined as 0.589.

For AACACUGCCAAUGCAGGUCCCAAGCCCGGAUAAAAGUUGAGGGGGCGG [C15A G38U], the self-cleavage came to 0.355.

For the variant AACACUGCCAAUGCCGGUCGCAAGCCCGUAUAAAAGUGGAGGGGGCGG [C20G G29U], the self-cleavage was 0.146.

With AACACUGCCUAUGCCGGUCCCAAGCCCGGACAAAAGUGGAGGGGGCGG [A10U U31C], the self-cleavage was determined as 0.919.

As for AACACUGCCAAUGCCGGUCCCAAGCCCGGAUACGAGUGGAGGGGGCGG [A33C A34G], the self-cleavage turned out to be 0.82.

For AACACUGCCAAUGCCGGUCCCAAGCGCGGAUAAAAGUGGAGGGGACGG [C26G G45A], the self-cleavage is 0.154.

For the variant AACACUGCCAAUGCCGGUCCCAAGCACGAAUAAAAGUGGAGGGGGCGG [C26A G29A], the self-cleavage stood at 0.267.

Turning to AACAGUGCCAAUGCCGGUACCAAGCCCGGAUAAAAGUGGAGGGGGCGG [C5G C19A], the self-cleavage is 0.0784.

On to AACACUGCCAAUGCCGGUCCCAAGCCCGGAUAAAAGAAGAGGGGGCGG [U37A G38A], for which the self-cleavage came to 0.821.

For AACACUGCCAAUGCCGGUCCCAAGCUCGGAUAAAUGUGGAGGGGGCGG [C26U A35U], the self-cleavage stood at 0.553.

On to AACACUGCCAAUGCCGGUCCCAAGCCCAGGUAAAAGUGGAGGGGGCGG [G28A A30G], for which the self-cleavage was determined as 0.938.

For AAAACUGCCAAGGCCGGUCCCAAGCCCGGAUAAAAGUGGAGGGGGCGG [C3A U12G], the self-cleavage came to 0.159.

Consider AACACUGCCAAUGCCGGUCCCAAGCCCUGAUGAAAGUGGAGGGGGCGG [G28U A32G], for which the self-cleavage is 0.777.

For AACACUGCCAAUGCCGGUCCCAAGCUCUGAUAAAAGUGGAGGGGGCGG [C26U G28U], the self-cleavage is 0.142.

Consider UACACUGCCAAUGCCGGUCCCAAGCCAGGAUAAAAGUGGAGGGGGCGG [A1U C27A], for which the self-cleavage is 0.0592.

As for UACACUGCCAAUGCCGGUCCCAAGCCCGGAUAAAAGUUGAGGGGGCGG [A1U G38U], the self-cleavage stood at 0.0843.

As for AACACUGCCAAUGCCGGUCCCAAGCCCGGAUACAACUGGAGGGGGCGG [A33C G36C], the self-cleavage amounted to 0.101.

AACACUGCCAAUGCCGGUCCCAAGCCCGGUUAAAAGGGGAGGGGGCGG [A30U U37G]: the self-cleavage amounted to 0.912.

In the case of AACACUGCCAAUGCCGGUCCCAAGCCCGCAUAAAAGUGGAGGGGUCGG [G29C G45U], the self-cleavage is 0.362.

As to AACACUGCCAAUGCCGGUCCCAAGCCCGGGUAAAAGUGGAGGGCGCGG [A30G G44C], the self-cleavage was 1.02.

Turning to AACACUGCCAAGGCCGGUCCCAAGCCCGGAUACAAGUGGAGGGGGCGG [U12G A33C], the self-cleavage amounted to 0.685.

AACACUGCCAAAGCCGGUCCCAAGCCCGGAUAUAAGUGGAGGGGGCGG [U12A A33U]: the self-cleavage stood at 1.14.

With AACACUGCCAUUGCCGGUCCCAAGCCGGGAUAAAAGUGGAGGGGGCGG [A11U C27G], the self-cleavage came to 0.104.

Take AACACUGCCAAUGCCGGUCCCAAGUCCGGAUAAGAGUGGAGGGGGCGG [C25U A34G]: the self-cleavage was found to be 0.487.

In the case of AACACUGCCAAUGCCGGUCCCAAGCGCGGAUAAACGUGGAGGGGGCGG [C26G A35C], the self-cleavage was 0.319.

Regarding AACACUGCCAAUGCCGGUCCCAAGCCCGGAUAAAAGUGGACGGGGCGU [G41C G48U], the self-cleavage was 0.288.

Regarding AACACUGCCAAUGCCGGUCCCAAGCCCGGAUAAAAGUGGACGGGGCGC [G41C G48C], the self-cleavage amounted to 0.332.

As to AACACUGCCAAUGGCGGUCCCCAGCCCGGAUAAAAGUGGAGGGGGCGG [C14G A22C], the self-cleavage was determined as 0.372.

Regarding AACACUGCCAAUGCCGGUCCGAAGCCCGCAUAAAAGUGGAGGGGGCGG [C21G G29C], the self-cleavage was 0.123.

On to AACACGGCCAAUGCCGGUCCCAAGCCCGGAUAAAAGUGGAGAGGGCGG [U6G G42A], for which the self-cleavage came out at 0.0807.

With AACACUGCCAAUCCCGGUCCCAAGCCCGGAUAAAAGUGGAGGGGGCUG [G13C G47U], the self-cleavage amounted to 0.145.

For AACACUACCAAUGCUGGUCCCAAGCCCGGAUAAAAGUGGAGGGGGCGG [G7A C15U], the self-cleavage worked out at 0.377.

For CACACUGCCAAUGCCGGUCCCAAGCCCGGAUAAAAGAGGAGGGGGCGG [A1C U37A], the self-cleavage came out at 0.148.

Take AACACUGCCAAUGCCGGUACCAAGCCCGGAUAAAAGUGGACGGGGCGG [C19A G41C]: the self-cleavage amounted to 0.114.

AACACUGCCGAGGCCGGUCCCAAGCCCGGAUAAAAGUGGAGGGGGCGG [A10G U12G]: the self-cleavage came to 1.07.

For AUCACUGCCAAUGCCGGUCCCAAGCCCGGAUAAAAGUAGAGGGGGCGG [A2U G38A], the self-cleavage was determined as 0.789.

In the case of AACACUGCCAAUGACGGUCCCAAGCCCGGAUAAUAGUGGAGGGGGCGG [C14A A34U], the self-cleavage came out at 0.866.

As to AACAUUGCCAAUGCCGGUCCCAAGCCCGGAUAAAAGUGGCGGGGGCGG [C5U A40C], the self-cleavage came out at 0.171.

In the case of AACACUGCCCAUGCCGGUUCCAAGCCCGGAUAAAAGUGGAGGGGGCGG [A10C C19U], the self-cleavage is 0.802.

Take AACACUGCCAAUGCCGGUCCCCAGCUCGGAUAAAAGUGGAGGGGGCGG [A22C C26U]: the self-cleavage amounted to 0.631.

With AACACUGCCAAUGCCGGUCCCAAGACCGGAUAAAAGUGGAGGCGGCGG [C25A G43C], the self-cleavage was 0.0876.

Consider AAGACUGCCAAUGCCGGUCCCCAGCCCGGAUAAAAGUGGAGGGGGCGG [C3G A22C], for which the self-cleavage is 0.481.

Turning to AACACUGCCAAUGCCGGUCCCAAGCCGGGAUAAAAGGGGAGGGGGCGG [C27G U37G], the self-cleavage stood at 0.0978.

For AACACUGCCAAUGCCGGACCCAAGCCCGGAUACAAGUGGAGGGGGCGG [U18A A33C], the self-cleavage was determined as 0.247.

Consider AACACUGCCAAUGCCGGUCCCAAGCCUGGAUAAAAUUGGAGGGGGCGG [C27U G36U], for which the self-cleavage is 0.158.

For the variant AACACAGCCAAUGCCGGUCCCAAGCCCGGAUAAAAGUGGAGGCGGCGG [U6A G43C], the self-cleavage amounted to 0.172.

As to AACACUGCCAAUGCCGGUCCCAAGCCCGGAUAAAAGUGGAGGGGACAG [G45A G47A], the self-cleavage was found to be 0.71.

For AACAGUGCCAAUGCCGGUCCCAAGCCCGGAUAAAAGUGAAGGGGGCGG [C5G G39A], the self-cleavage came out at 0.197.

On to GACUCUGCCAAUGCCGGUCCCAAGCCCGGAUAAAAGUGGAGGGGGCGG [A1G A4U], for which the self-cleavage turned out to be 0.235.

For AACACUGCCAAUGCCGGUCCCAAGCCCGGAUAAAUGGGGAGGGGGCGG [A35U U37G], the self-cleavage is 0.69.

Turning to AACACUGCCAAUGCCGGUCCCAAGCCCGAAUAAAAGUGGUGGGGGCGG [G29A A40U], the self-cleavage stood at 0.204.

For AACACUGCUAAUGCCGGUCGCAAGCCCGGAUAAAAGUGGAGGGGGCGG [C9U C20G], the self-cleavage worked out at 0.0672.

As to AACCCUGGCAAUGCCGGUCCCAAGCCCGGAUAAAAGUGGAGGGGGCGG [A4C C8G], the self-cleavage amounted to 0.071.
